Measured values: US11202818B2, “Methods and compositions for modulating erythropoiesis” (President and Fellows of Harvard College, priority 2016, dated 2021)
Entries after “also recorded” stand apart in the source; their conditions may differ.

Columns and labels:
[1] = tested on: embryonic day 13.5 fetal liver cells; experiment: Epo-dependent erythroid colony formation (CFU-e/BFU-e) in MethoCult, fetal liver; format: cell-based, mouse
Source text: Here, IL-17ra is expressed in the EEP region of the bBM SPRING plot (FIG. 4, Panel a) and its corresponding P2 subset (FIG. 4, Panel n), and to a lesser extent in the CEP/P1 region, in addition to its expression by non-erythroid cells. Both Ryk and mst1r are expressed more selectively, principally within the CEP/P1 region of the erythroid trajectory (FIG. 4, Panels a and n). Wnt5a, MSP and IL-17a were used to stimulate Ryk, mst1r and IL-17ra respectively, and measured their interaction with Epo, an essential erythroid cytokine, using colony formation assays (FIG. 4, Panel c). Epo concentration in blood ranges from 5-10 mU/ml in the basal state, to 10,000 mU/ml in extremely severe anemia The addition of MSP to FL in the presence of mildly elevated Epo concentrations (50 mU/ml, characteristic of mild anemia) was equivalent to a 10-fold increase in Epo concentration, generating over 2 fold the number of CFUe (day 3 unifocal) colonies. However, in the context of high Epo (>100 mU/ml), the addition of MSP was inhibitory. MSP-mediated inhibition was also seen in earlier FL progenitors and in BM progenitors of all stages. […] In summary, MSP, Wnt5a and IL-17a may provide powerful modulation of pre-ETD erythroid progenitors, in a manner that is highly dependent on their developmental stage and background state of progenitor stimulation (stress v. basal).
In bone marrow (BM), 1117ra was expressed by EEPs/P2 and to a lesser extent by CEPs/P1, in addition to non-erythroid cells. Both Ryk and Mst1r are expressed more selectively, though not exclusively, by EEP and CEP cells (FIG. 15, Panel a, and FIG. 16, Panels a and b). Ryk, Mst1r and IL-17Ra were stimulated with their respective ligands, Wnt5a, MSP and IL-17a, using Epo-dependent erythroid colony formation as readout (FIG. 15, Panels b and c, FIG. 7). Epo concentration in blood varies from ˜10 mU/ml in health, to 10,000 mU/ml in severe anemia. […] By contrast. IL-17a mediated a potentiation of adult BM CFU-e colony formation throughout the Epo dose-response curve, giving rise to 4-fold more colonies at lower Epo (50 mU/ml), and to a ˜50% increase in colony formation when added to maximal levels of Epo (FIG. 15, Panels b. and c).
Growth factor perturbations of erythroid colony formation: CFU-e and BFU-e colony formation assays in MethoCult (M3234 STEMCELL Technologies) were carried out on either freshly isolated bone marrow or on embryonic day 13.5 fetal liver cells from Balb/cJ mice. The following growth factors were tested: MSP/MST1 (R&D systems; CAT #6244-MS-025), Recombinant Human/Mouse Wnt-5a (R&D systems; CAT #645-WN-010) and Recombinant Murine IL17 (IL-17A) (PeproTech; CAT 4210-17). In each experiment, a range of Epo concentrations was tested, with or without added additional growth factors (MSP, Wnt5a or IL-17A) as indicated in FIG. 5 and in Extended Data FIG. 12. In addition to Epo, IL-3 (long/mL) and SCF (50ng/ mL) were added to the MethoCult in the case of BFU-e assays. Each condition was tested in quadruplicates, in at least 2 separate experiments. Colonies were scored on day 3 (for CFU-e), day 4 (for late BFU-e) and on day 7 (for early BFU-e) following staining with diaminobenzidine, to highlight hemoglobin expression.

[2] = tested on: freshly isolated bone marrow; experiment: Epo-dependent erythroid colony formation (CFU-e/BFU-e) in MethoCult, bone marrow; format: cell-based, mouse; conditions: BM progenitors of all stages
Source text: Here, IL-17ra is expressed in the EEP region of the bBM SPRING plot (FIG. 4, Panel a) and its corresponding P2 subset (FIG. 4, Panel n), and to a lesser extent in the CEP/P1 region, in addition to its expression by non-erythroid cells. Both Ryk and mst1r are expressed more selectively, principally within the CEP/P1 region of the erythroid trajectory (FIG. 4, Panels a and n). Wnt5a, MSP and IL-17a were used to stimulate Ryk, mst1r and IL-17ra respectively, and measured their interaction with Epo, an essential erythroid cytokine, using colony formation assays (FIG. 4, Panel c). […]
In bone marrow (BM), 1117ra was expressed by EEPs/P2 and to a lesser extent by CEPs/P1, in addition to non-erythroid cells. […] Ryk, Mst1r and IL-17Ra were stimulated with their respective ligands, Wnt5a, MSP and IL-17a, using Epo-dependent erythroid colony formation as readout (FIG. 15, Panels b and c, FIG. 7). […]
Growth factor perturbations of erythroid colony formation: CFU-e and BFU-e colony formation assays in MethoCult (M3234 STEMCELL Technologies) were carried out on either freshly isolated bone marrow or on embryonic day 13.5 fetal liver cells from Balb/cJ mice. […] Colonies were scored on day 3 (for CFU-e), day 4 (for late BFU-e) and on day 7 (for early BFU-e) following staining with diaminobenzidine, to highlight hemoglobin expression.

B1: MSP: Macrophage Stimulating Protein, ligand of Mst1r; R&D systems CAT #6244-MS-025 (protein)
chain: MGLWWVTVQPPARRMGWLPLLLLLTQCLGVPGQRSPLNDFQVLRGTELQHLLHAVVPGPWQEDVADAEECAGRCGPLMDCRAFHYNVSSHGCQLLPWTQHSPHTRLRRSGRCDLFQKKDYVRTCIMNNGVGYRGTMATTVGGLPCQAWSHKFPNDHKYTPTLRNGLEENFCRNPDGDPGGPWCYTTDPAVRFQSCGIKSCREAACVWCNGEEYRGAVDRTESGRECQRWDLQHPHQHPFEPGKFLDQGLDDNYCRNPDGSERPWCYTTDPQIEREFCDLPRCGSEAQPRQEATTVSCFRGKGEGYRGTANTTTAGVPCQRWDAQIPHQHRFTPEKYACKDLRENFCRNPDGSEAPWCFTLRPGMRAAFCYQIRRCTDDVRPQDCYHGAGEQYRGTVSKTRKGVQCQRWSAETPHKPQFTFTSEPHAQLEENFCRNPDGDSHGPWCYTMDPRTPFDYCALRRCADDQPPSILDPPDQVQFEKCGKRVDRLDQRRSKLRVVGGHPGNSPWTVSLRNRQGQHFCGGSLVKEQWILTARQCFSSCHMPLTGYEVWLGTLFQNPQHGEPSLQRVPVAKMVCGPSGSQLVLLKLERSVTLNQRVALICLPPEWYVVPPGTKCEIAGWGETKGTGNDTVLNVALLNVISNQECNIKHRGRVRESEMCTEGLLAPVGACEGDYGGPLACFTHNCWVLEGIIIPNRVCARSRWPAVFTRVSVFVDWIHKVMRLG
- effect on fetal liver erythropoiesis at low erythropoietin ([1]; FL, Epo 50 mU/ml or less): enhance erythropoiesis
- equivalent increase in Epo concentration ([1]; FL, Epo 50 mU/ml, ligand added): 10 fold
- number of CFUe (day 3 unifocal) colonies generated, fold ([1]; FL, Epo 50 mU/ml, ligand added): over 2 fold
- effect on fetal liver erythropoiesis at high Epo ([1]; FL, Epo >100 mU/ml): inhibitory; also recorded: inhibit erythropoiesis
- effect in earlier FL progenitors ([1]; FL, earlier progenitors (BFU-e)): inhibition
- effect on erythroid colony formation in other contexts ([1]; contexts other than FL at Epo 50 mU/ml (FL and BM)): inhibitory
- effect on erythroid colony formation in BM [2]: inhibition; also recorded: inhibitory effect

B2: Wnt5a: Recombinant Human/Mouse Wnt-5a, ligand of Ryk; R&D systems CAT #645-WN-010 (protein)
chain: MAGSAMSSKFFLVALAIFFSFAQVVIEANSWWSLGMNNPVQMSEVYIIGAQPLCSQLAGLSQGQKKLCHLYQDHMQYIGEGAKTGIKECQYQFRHRRWNCSTVDNTSVFGRVMQIGSRETAFTYAVSAAGVVNAMSRACREGELSTCGCSRAARPKDLPRDWLWGGCGDNIDYGYRFAKEFVDARERERIHAKGSYESARILMNLHNNEAGRRTVYNLADVACKCHGVSGSCSLKTCWLQLADFRKVGDALKEKYDSAAAMRLNSRGKLVQVNSRFNSPTTQDLVYIDPSPDYCVRNESTGSLGTQGRLCNKTSEGMDGCELMCCGRGYDQFKTVQTERCHCKFHWCCYVKCKKCTEIVDQFVCK
- effect on erythroid colony formation in FL ([1]; FL progenitors): consistent and potent inhibitor
- effect on erythroid colony formation in BM [2]: consistent and potent inhibitor
